Measurements reported in IntAct's records for PubMed 15990873.

B1: Protein MKS1 (Arabidopsis thaliana (Mouse-ear cress)), Q8LGD5 (parent)
chain: MDPSEYFAGGNPSDQQNQKRQLQICGPRPSPLSVHKDSHKIKKPPKHPAPPPNRDQPPPYIPREPVVIYAVSPKVVHATASEFMNVVQRLTGISSGVFLESGGGGDVSPAARLASTENASPRGGKEPAARDETVEINTAMEEAAEFGGYAPGILSPSPALLPTASTGIFSPMYHQGGMFSPAIPLGLFSPAGFMSPFRSPGFTSLVASPTFADFFSHIWDQD
partner: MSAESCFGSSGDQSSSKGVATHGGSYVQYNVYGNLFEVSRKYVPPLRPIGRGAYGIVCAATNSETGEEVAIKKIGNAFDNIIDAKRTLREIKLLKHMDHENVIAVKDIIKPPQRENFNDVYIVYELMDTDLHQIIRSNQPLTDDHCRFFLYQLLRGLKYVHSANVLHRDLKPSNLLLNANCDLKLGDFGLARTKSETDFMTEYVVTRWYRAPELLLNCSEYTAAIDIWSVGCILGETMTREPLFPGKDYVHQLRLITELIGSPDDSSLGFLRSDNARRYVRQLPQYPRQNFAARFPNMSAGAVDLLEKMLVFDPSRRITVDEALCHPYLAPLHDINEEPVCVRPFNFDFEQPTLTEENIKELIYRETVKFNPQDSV

Variants of: B1
Conditions: with mpk4_arath MPK4, Q39024

Row | Variant | effect of a mutation on the interaction
1 | MDPSEYFAGGNPSDQQNQKRQLQICGPRPAPLSVHKDSHKIKKPPKHPAPPPNRDQPPPYIPREPVVIYAVSPKVVHATASEFMNVVQRLTGISSGVFLESGGGGDVSPAARLASTENASPRGGKEPAARDETVEINTAMEEAAEFGGYAPGILSPSPALLPTASTGIFSPMYHQGGMFSPAIPLGLFSPAGFMSPFRSPGFTSLVASPTFADFFSHIWDQD [S30A] | decreasing interaction
